# Results reported in US20100184658A1 (published 2010).
# T1: IKBKB (IKK beta) IKK2 (human (printed as (h)), UniProt O14920 1-756, limits assumed)
# T1 sequence (looked up): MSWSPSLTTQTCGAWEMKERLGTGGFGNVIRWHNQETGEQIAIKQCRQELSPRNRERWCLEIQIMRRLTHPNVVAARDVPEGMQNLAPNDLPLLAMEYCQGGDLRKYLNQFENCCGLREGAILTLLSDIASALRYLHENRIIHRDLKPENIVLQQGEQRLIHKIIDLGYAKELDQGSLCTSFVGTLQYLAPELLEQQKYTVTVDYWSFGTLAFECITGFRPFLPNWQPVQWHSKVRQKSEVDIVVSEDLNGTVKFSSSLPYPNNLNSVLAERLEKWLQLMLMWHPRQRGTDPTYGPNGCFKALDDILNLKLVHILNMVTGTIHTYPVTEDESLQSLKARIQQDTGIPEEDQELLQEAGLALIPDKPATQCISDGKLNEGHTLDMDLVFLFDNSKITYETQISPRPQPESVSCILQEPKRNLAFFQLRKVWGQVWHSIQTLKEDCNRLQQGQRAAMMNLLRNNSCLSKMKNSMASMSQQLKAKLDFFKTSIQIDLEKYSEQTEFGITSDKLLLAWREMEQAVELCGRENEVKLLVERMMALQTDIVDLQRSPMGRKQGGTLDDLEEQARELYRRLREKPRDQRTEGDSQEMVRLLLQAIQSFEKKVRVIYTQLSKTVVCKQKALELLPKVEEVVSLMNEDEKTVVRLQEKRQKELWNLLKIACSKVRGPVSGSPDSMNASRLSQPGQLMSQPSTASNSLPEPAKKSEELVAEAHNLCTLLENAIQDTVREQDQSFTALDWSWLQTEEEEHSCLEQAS
# T2: PHKG2 Phosphorylase kinase, gamma 2 (UniProt P15735 1-406, limits assumed)
# T2 sequence (looked up): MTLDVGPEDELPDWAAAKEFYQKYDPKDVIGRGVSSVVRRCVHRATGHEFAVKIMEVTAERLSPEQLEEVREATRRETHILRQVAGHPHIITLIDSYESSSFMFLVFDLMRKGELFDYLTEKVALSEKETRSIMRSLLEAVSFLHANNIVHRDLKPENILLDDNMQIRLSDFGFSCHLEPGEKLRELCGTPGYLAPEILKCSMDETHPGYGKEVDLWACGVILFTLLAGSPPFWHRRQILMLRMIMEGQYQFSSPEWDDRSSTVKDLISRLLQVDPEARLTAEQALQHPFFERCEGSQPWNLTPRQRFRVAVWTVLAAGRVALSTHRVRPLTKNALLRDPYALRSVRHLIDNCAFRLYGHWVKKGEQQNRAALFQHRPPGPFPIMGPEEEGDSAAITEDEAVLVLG
# Assays:
# Experiment in all cases: cell-based or functional assay
# [1] = target: T1, IKBKB (IKK beta) IKK2
# [2] = target: GRK5 (UniProt P34947 1-590, limits assumed)
# Chain of GRK5 (P34947 whole entry): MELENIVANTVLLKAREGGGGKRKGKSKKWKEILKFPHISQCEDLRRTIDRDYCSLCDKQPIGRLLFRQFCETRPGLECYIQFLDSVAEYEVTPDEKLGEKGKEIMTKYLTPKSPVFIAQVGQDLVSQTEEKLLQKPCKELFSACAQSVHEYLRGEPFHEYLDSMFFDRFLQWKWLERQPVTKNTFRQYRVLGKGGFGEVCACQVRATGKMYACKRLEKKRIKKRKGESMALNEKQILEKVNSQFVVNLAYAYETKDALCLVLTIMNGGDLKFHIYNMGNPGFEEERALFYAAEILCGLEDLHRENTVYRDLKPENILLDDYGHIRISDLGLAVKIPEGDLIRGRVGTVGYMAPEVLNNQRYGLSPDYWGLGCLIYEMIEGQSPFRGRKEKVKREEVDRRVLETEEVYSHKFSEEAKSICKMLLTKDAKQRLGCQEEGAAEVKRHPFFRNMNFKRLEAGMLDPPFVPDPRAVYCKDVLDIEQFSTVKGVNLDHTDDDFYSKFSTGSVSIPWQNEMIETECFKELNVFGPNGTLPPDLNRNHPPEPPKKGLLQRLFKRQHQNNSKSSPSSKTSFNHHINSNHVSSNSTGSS
# [3] = target: SRMS (Srm) (UniProt Q9H3Y6 1-488, limits assumed)
# Chain of SRMS (Srm) (Q9H3Y6 whole entry): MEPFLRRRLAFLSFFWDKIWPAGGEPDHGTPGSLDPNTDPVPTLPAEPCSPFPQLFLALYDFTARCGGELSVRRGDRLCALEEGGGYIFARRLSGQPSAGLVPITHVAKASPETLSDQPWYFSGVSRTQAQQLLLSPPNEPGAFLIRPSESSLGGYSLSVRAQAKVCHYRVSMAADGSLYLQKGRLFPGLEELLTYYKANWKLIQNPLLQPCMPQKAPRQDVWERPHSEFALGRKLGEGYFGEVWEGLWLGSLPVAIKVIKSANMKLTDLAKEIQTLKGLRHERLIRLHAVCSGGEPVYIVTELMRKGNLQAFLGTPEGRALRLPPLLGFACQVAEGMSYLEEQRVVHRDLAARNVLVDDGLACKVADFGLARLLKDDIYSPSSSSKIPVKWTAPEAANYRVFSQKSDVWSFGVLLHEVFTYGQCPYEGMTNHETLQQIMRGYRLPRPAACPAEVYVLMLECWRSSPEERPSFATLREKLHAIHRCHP
# [4] = target: PRKCA (PKC alpha) (UniProt P17252 1-672, limits assumed)
# [5] = target: MAP2K2 (MEK2) Mitogen-activated protein kinase kinase 2 (UniProt P36507 1-400, limits assumed)
# [6] = target: MAP3K9 (MLK1) Mitogen-activated protein kinase kinase kinase 9 (UniProt P80192 132-413, limits assumed)
# Chain of MAP3K9 (MLK1) Mitogen-activated protein kinase kinase kinase 9 (P80192 132-413 limits assumed): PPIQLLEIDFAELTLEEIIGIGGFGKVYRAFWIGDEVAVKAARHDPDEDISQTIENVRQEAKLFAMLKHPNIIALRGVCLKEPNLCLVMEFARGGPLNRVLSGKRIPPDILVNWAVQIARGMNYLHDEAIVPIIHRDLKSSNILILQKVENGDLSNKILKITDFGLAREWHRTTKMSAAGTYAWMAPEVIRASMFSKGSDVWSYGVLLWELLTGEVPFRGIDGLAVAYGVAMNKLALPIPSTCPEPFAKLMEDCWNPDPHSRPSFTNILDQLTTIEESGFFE
# [7] = target: MST4 (UniProt Q9P289 1-416, limits assumed)
# Chain of MST4 (Q9P289 whole entry): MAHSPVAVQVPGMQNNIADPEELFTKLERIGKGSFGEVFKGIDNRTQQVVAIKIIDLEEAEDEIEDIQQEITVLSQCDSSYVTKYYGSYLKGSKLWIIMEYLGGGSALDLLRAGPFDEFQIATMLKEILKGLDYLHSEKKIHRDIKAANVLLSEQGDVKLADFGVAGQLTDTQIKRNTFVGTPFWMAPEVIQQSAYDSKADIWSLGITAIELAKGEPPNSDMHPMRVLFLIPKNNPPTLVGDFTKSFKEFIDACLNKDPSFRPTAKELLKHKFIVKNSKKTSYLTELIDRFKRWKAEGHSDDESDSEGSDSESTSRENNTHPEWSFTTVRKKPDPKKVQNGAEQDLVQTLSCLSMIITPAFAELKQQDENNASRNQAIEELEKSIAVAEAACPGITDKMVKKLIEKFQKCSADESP
# [8] = target: MAP4K4 (HGK) (UniProt O95819 1-328, limits assumed)
# Chain of MAP4K4 (HGK) (O95819 1-328 limits assumed): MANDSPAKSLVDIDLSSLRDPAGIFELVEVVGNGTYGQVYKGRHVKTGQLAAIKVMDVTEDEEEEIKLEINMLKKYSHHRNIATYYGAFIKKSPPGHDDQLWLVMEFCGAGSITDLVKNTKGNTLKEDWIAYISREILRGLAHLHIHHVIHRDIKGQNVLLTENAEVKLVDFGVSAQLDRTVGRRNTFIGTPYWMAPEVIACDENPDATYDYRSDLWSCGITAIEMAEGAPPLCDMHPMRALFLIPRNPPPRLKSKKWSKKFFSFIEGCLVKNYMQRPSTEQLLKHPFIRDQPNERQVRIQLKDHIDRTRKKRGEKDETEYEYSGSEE
# [9] = target: STK24 (MST3) Serine/threonine kinase 24 (STE20 homolog, yeast) (UniProt Q9Y6E0 1-443, limits assumed)
# [10] = target: MAP3K8 (COT) Mitogen-activated protein kinase kinase kinase 8 (UniProt P41279 30-397, limits assumed)
# Chain of MAP3K8 (COT) Mitogen-activated protein kinase kinase kinase 8 (P41279 30-397 limits assumed): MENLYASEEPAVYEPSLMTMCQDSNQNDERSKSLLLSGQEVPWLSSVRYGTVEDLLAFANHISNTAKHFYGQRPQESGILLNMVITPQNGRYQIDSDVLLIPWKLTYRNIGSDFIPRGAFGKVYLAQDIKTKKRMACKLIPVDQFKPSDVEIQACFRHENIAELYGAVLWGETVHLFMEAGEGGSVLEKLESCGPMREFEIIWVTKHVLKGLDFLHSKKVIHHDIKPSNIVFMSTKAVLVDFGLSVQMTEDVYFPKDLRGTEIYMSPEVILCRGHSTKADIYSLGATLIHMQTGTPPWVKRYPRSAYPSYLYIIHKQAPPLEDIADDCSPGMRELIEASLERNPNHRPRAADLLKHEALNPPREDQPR
# [11] = target: RPS6KA4 (MSK2) Ribosomal protein S6 kinase, 90 kDa, polypeptide 4 (UniProt O75676 1-772, limits assumed)
# [12] = target: MAPK9 (JNK2) Mitogen-activated protein kinase 9 (UniProt P45984 1-424, limits assumed)
# [13] = target: PRKCB1 (PKC beta I) Protein kinase C, beta 1 (UniProt P05771 1-671)
# [14] = target: T2, PHKG2 Phosphorylase kinase, gamma 2
# [15] = target: MAP4K5 (KHS1) (UniProt Q9Y4K4 1-846, limits assumed)
# Chain of MAP4K5 (KHS1) (Q9Y4K4 whole entry): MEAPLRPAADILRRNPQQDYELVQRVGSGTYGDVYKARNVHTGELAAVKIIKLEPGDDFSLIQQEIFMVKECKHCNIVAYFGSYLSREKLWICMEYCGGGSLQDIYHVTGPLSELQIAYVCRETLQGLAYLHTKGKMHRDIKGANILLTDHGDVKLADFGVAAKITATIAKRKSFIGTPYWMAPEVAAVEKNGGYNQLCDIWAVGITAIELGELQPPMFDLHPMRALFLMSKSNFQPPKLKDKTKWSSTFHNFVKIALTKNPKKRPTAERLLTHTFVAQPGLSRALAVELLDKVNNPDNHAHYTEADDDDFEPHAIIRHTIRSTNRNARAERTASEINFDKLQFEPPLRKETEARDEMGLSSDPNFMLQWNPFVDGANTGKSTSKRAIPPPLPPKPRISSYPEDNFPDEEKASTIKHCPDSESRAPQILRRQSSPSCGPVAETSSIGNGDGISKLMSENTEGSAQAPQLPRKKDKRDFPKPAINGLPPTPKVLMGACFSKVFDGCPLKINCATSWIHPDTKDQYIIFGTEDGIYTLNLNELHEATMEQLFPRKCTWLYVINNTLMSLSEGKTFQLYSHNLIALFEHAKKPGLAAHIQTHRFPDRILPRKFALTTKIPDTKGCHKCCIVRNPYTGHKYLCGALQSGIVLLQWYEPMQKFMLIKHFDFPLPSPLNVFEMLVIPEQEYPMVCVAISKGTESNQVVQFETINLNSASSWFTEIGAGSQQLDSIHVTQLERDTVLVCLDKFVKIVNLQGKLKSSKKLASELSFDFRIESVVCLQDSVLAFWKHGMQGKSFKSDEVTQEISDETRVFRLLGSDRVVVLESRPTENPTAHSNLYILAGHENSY
# [16] = target: NEK7 (UniProt Q8TDX7 1-302, limits assumed)
# Chain of NEK7 (Q8TDX7 whole entry): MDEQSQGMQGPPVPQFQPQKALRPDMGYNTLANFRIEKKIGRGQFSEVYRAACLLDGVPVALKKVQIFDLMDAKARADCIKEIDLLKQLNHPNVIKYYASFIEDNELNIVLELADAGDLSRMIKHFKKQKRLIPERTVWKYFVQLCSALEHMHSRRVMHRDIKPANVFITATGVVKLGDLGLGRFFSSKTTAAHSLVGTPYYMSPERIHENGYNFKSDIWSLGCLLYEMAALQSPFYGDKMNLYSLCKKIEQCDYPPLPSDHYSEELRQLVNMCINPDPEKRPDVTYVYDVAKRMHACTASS
# [17] = target: ABL1 T315I (UniProt P00519 1-1130, limits assumed)
# [18] = target: ROCK2 (UniProt O75116 5-554, limits assumed)
# [19] = target: TEK (Tie2) Tyrosine kinase, endothelial (UniProt Q02763 771-1124, limits assumed)
# Chain of TEK (Tie2) Tyrosine kinase, endothelial (Q02763 771-1124 limits assumed): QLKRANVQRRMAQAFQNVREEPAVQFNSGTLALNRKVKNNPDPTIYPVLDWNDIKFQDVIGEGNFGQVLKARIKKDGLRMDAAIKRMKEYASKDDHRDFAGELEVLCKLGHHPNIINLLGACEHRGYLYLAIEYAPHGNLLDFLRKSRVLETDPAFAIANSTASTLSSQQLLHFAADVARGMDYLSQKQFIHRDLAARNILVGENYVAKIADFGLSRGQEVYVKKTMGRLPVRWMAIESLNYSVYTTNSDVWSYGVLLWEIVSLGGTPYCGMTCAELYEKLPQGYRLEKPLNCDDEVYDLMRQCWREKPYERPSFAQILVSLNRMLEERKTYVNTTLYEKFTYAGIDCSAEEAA
# [20] = target: DAPK3 (ZIPK) (UniProt O43293 1-454, limits assumed)
# Chain of DAPK3 (ZIPK) (O43293 whole entry): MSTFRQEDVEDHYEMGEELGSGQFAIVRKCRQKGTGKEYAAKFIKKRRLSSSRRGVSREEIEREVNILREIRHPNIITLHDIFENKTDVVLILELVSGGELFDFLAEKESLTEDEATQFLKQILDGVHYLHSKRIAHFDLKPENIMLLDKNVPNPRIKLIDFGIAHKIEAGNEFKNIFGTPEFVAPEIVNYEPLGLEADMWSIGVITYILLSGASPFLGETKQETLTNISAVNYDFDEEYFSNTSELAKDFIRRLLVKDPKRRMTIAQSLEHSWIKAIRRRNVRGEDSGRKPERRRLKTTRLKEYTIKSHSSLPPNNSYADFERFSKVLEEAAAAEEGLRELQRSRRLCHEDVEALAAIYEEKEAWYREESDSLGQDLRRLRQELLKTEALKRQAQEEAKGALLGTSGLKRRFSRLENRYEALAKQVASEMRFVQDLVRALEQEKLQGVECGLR
# [21] = target: CSK (UniProt P41240 1-450, limits assumed)
# [22] = target: PHKG1 (UniProt Q16816 1-387, limits assumed)
# Chain of PHKG1 (Q16816 whole entry): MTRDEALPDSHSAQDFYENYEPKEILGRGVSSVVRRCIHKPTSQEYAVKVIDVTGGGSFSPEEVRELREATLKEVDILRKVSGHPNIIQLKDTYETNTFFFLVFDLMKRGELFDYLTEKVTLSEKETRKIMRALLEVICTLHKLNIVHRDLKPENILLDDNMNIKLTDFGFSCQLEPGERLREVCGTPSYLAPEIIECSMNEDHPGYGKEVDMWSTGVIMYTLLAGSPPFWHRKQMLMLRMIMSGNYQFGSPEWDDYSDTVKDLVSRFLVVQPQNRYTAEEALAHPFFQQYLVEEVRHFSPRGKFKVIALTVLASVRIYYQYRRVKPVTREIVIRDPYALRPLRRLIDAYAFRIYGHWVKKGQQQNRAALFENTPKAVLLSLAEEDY
# Note: test concentration or dose not given here.
binder,measurement,setting,value
SGRPPMIVWFNRPFLIAVSHTHGQTILFMAKVINPVGA [D3 peptide],% Inhibition mean,[1],41%
same,% Inhibition mean,[2],50.8%
same,% Inhibition mean,[3],46.5%
same,% Inhibition mean,[4],45.1%
same,% Inhibition mean,[5],105%
same,% Inhibition mean,[6],101%
same,% Inhibition mean,[7],101%
same,% Inhibition mean,[8],100%
same,% Inhibition mean,[9],98.6%
same,% Inhibition mean,[10],98.6%
same,% Inhibition mean,[11],96.8%
same,% Inhibition mean,[12],92.9%
same,% Inhibition mean,[13],88%
same,% Inhibition mean,[14],87%
same,% Inhibition mean,[15],86.3%
same,% Inhibition mean,[16],73.8%
same,% Inhibition mean,[17],69.8%
same,% Inhibition mean,[18],66.7%
same,% Inhibition mean,[19],67%
same,% Inhibition mean,[20],62%
same,% Inhibition mean,[21],55.2%
same,% Inhibition mean,[22],54.8%
